Results: ChEMBL document CHEMBL3865823, “Ameliorative effects of amide derivatives of 1,3,4-thiadiazoles on scopolamine induced cognitive dysfunction” (Eur J Med Chem, 2016)

Key:
Format in all cases: tissue-based
[1] = compound: O=C(Nc1nnc(-c2ccccc2Cl)s1)c1cccc(CCl)c1; assay: (§1) Inhibition of albino mouse brain AChE assessed as Km for substrate using acetylthiocholine iodide as substrate measured for 2 mins by Ellmans method
[2] = compound: CC(=O)Oc1cccc(C(=O)Nc2nnc(Cc3ccccc3)s2)c1; assay: as §1
[3] = compound: O=C(Nc1nnc(-c2ccccc2)s1)c1cccc(CCl)c1; assay: as §1
[4] = compound: CC(CC(=O)Nc1nnc(Cc2ccccc2)s1)CC(C)(C)C; assay: as §1
[5] = compound: Cc1ccc(-c2nnc(NC(=O)c3cc(C(F)(F)F)cc(C(F)(F)F)c3)s2)cc1; assay: as §1
[6] = compound: CC(=O)Oc1cccc(C(=O)Nc2nnc(-c3ccccc3)s2)c1; assay: as §1
[7] = compound: CC(=O)Oc1cccc(C(=O)Nc2nnc(-c3ccccc3Cl)s2)c1; assay: as §1
[8] = compound: Cc1ccc(-c2nnc(NC(=O)CC(C)CC(C)(C)C)s2)cc1; assay: as §1
[9] = compound: O=C(Nc1nnc(Cc2ccccc2)s1)c1cccc(CCl)c1; assay: as §1
[10] = compound: Cc1ccc(-c2nnc(NC(=O)c3cccc(CCl)c3)s2)cc1; assay: as §1
[11] = compound: CC(CC(=O)Nc1nnc(-c2cccc(Cl)c2)s1)CC(C)(C)C; assay: as §1
[12] = compound: O=C(Nc1nnc(-c2ccccc2Cl)s1)c1cc(C(F)(F)F)cc(C(F)(F)F)c1; assay: as §1
[13] = compound: CC(CC(=O)Nc1nnc(-c2ccccc2)s1)CC(C)(C)C; assay: as §1
[14] = compound: CC(=O)Oc1cccc(C(=O)Nc2nnc(-c3ccc(C)cc3)s2)c1; assay: as §1

B1: Acetylcholinesterase (Mus musculus), P21836 (protein)
chain: MRPPWYPLHTPSLAFPLLFLLLSLLGGGARAEGREDPQLLVRVRGGQLRGIRLKAPGGPVSAFLGIPFAEPPVGSRRFMPPEPKRPWSGVLDATTFQNVCYQYVDTLYPGFEGTEMWNPNRELSEDCLYLNVWTPYPRPASPTPVLIWIYGGGFYSGAASLDVYDGRFLAQVEGAVLVSMNYRVGTFGFLALPGSREAPGNVGLLDQRLALQWVQENIAAFGGDPMSVTLFGESAGAASVGMHILSLPSRSLFHRAVLQSGTPNGPWATVSAGEARRRATLLARLVGCPPGGAGGNDTELIACLRTRPAQDLVDHEWHVLPQESIFRFSFVPVVDGDFLSDTPEALINTGDFQDLQVLVGVVKDEGSYFLVYGVPGFSKDNESLISRAQFLAGVRIGVPQASDLAAEAVVLHYTDWLHPEDPTHLRDAMSAVVGDHNVVCPVAQLAGRLAAQGARVYAYIFEHRASTLTWPLWMGVPHGYEIEFIFGLPLDPSLNYTTEERIFAQRLMKYWTNFARTGDPNDPRDSKSPQWPPYTTAAQQYVSLNLKPLEVRRGLRAQTCAFWNRFLPKLLSATDTLDEAERQWKAEFHRWSSYMVHWKNQFDHYSKQERCSDL
- Km [1]: 15.3 µM
- Km [2]: 4.47 µM
- Km [3]: 16.4 µM
- Km [4]: 24.9 µM
- Km [5]: 4.89 µM
- Km [6]: 1.37 µM
- Km [7]: 16 µM
- Km [8]: 7.86 µM
- Km [9]: 12.9 µM
- Km [10]: 1.9 µM
- Km [11]: 17.7 µM
- Km [12]: 2.35 µM
- Km [13]: 9.09 µM
- Km [14]: 8.01 µM
